Publication PMC3307134
Where two headings read alike, the source gives them in different places.

Experiments:
[1] = target: fibrin (β15-66)2 15-66 (Homo sapiens) (UniProt P02675); assay: SPR; settings: cited from earlier work
[2] = target: recombinant dimeric (β15-66)2 fragment; assay: ELISA
[3] = target: VE-cad(3)His fragment (human); assay: SPR
[4] = target: VE-cad(1-5) fragment (human); assay: SPR
[5] = target: VE-cad(3)His fragment (human); assay: SPR; remark: listed apart in the source
[6] = target: VE-cad(1-5) fragment (human); assay: SPR; remark: listed apart in the source
[7] = target: VE-cad(3)His fragment (human); assay: SPR; remark: listed apart in the source

Chain of VE-cadherin VE-cad(1-4)His EC1-4 (P33151 48-477): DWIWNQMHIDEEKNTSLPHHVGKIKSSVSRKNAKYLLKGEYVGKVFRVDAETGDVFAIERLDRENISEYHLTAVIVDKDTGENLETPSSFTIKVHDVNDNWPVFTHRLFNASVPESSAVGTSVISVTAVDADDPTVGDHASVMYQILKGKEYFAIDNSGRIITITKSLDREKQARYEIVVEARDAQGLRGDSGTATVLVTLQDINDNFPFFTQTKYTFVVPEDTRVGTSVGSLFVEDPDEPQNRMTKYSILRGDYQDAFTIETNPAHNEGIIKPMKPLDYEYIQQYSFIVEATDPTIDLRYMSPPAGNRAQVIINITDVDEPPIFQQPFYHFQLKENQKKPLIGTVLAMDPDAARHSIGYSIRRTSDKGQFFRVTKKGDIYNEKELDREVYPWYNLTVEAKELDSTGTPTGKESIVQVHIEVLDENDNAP
Chain of fibrin (β15-66)2 15-66 (Homo sapiens) (P02675 15-66): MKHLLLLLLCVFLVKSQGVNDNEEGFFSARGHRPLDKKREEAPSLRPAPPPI

VE-cadherin VE-cad(1-4)His EC1-4 (from UniProt P33151)
Kd [1]: 80 nM

VE-cad(2-3) fragment (domain or fragment)
Kd [2]: 27 nM

recombinant dimeric (β15-66)2 fragment (domain or fragment)
Kd [3]: 91 nM
koff [3]: 0.0172 s⁻¹
kon [3]: 189000 M⁻¹ s⁻¹
Kd [4]: 76.7 nM
kon [4]: 678000 M⁻¹ s⁻¹
Kd [5]: 90 nM
Kd [6]: 82 nM
Kd [7]: 89 nM

VE-cad(2-4) fragment (domain or fragment)
Kd [2]: 32 nM
